According to patent US20210130459A1 (YISSUM RESEARCH DEVELOPMENT COMPANY OF THE HEBREW …, published 2021):
Changes are numbered by the printed parent chain. One block for each binder: values may come before it.

Assays:
[1] = target: human Nectin4-Ig (Nectin4-Fc fusion protein) (human) (UniProt Q96NY8); test: microscale thermophoresis with fluorophore-labeled human Nectin4-Ig
[2] = target: T1, murine Nectin4 expressed on cells (murine, UniProt Q8R007 31-508); test: FACS staining of RAJI cells transfected with murine Nectin4
T1 construct: whole, on cells; also called mNectin4
T1 sequence (looked up): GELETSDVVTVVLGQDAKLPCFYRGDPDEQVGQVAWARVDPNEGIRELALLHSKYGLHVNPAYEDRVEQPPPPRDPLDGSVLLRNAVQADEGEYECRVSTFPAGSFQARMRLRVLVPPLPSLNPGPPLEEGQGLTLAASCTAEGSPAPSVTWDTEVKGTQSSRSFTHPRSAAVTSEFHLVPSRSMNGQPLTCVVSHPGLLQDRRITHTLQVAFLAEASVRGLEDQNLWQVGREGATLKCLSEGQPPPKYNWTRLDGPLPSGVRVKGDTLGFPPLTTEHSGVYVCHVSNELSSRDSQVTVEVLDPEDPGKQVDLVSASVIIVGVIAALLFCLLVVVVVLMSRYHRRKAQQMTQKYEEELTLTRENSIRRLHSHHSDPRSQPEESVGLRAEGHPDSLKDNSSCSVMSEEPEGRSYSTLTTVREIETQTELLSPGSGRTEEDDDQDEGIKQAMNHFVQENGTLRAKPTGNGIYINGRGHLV
Method: (A) Western blots of RAJI cells transfected with murine Nectin4 (indicated as mNectin4) and detected with commercial anti-murine Nectin4 mAb (Clone 356704 which doesn't work for flow cytometry). Expression was compared to RAJI cells expressing empty vector (indicated as Empty). Staining for hGAPDH was used as loading control. (B-C) FACS staining of RAJI cells transfected with murine Nectin4 (black line histograms). Cells were stained with 0.2 μg of (B) clone hNec4.01 or (C) clone hNec4.05.
RAJI cells were transfected with murine Nectin4 (black line histograms). First, RAJI cells transfected with murine Nectin4 lysates was used in Western blot assay with a commercial anti murine Nectin4 mAb (Clone 356704) in order to verify murine Nectin4 expression (A). Next, the cells were stained with 0.2 μg of (B) clone hNec4.01 or (C) clone hNec4.05.

[3] = target: T2, human Nectin4 expressed on cells (human, UniProt Q96NY8 32-510); test: FACS blocking assay, RAJI cells transfected with human Nectin4, 1 µg clone, then 3 µg Nectin1-Ig; blocked ligand Nectin1-Ig
T2 construct: whole, on cells; also called PVRL4; native human Nectin-4
T2 sequence (looked up): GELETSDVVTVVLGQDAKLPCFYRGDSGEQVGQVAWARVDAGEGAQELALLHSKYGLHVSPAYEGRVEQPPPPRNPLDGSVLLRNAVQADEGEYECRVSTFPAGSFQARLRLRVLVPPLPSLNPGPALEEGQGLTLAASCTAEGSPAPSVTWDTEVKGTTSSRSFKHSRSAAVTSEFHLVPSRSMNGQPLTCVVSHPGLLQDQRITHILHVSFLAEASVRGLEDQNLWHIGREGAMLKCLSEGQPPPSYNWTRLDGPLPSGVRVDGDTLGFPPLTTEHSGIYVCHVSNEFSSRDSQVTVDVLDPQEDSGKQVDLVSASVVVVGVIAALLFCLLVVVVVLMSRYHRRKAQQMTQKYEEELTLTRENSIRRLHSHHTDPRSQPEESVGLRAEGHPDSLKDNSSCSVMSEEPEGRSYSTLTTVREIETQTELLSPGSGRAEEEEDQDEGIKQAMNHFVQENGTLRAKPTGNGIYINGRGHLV
Method: FIGS. 6A-6C Blocking of Nectin4-Nectin1 interactions. (A-B) FACS staining of RAJI cells transfected with human-Nectin4. Cells were pre-incubated with 1 μg of (A) clone hNec4.01, or (B) clone hNec4.05 and then incubated with 3 μg of Nectin1-Ig (black line histograms). Staining without blocking appears as gray line. Grey filled histograms are background control staining of secondary antibody only. (C) Mean Fluorescence Intensity (MFI) values of FACS staining of A and B.
For staining of human TIGIT-Ig or human Nectin1-Ig, cells were incubated on ice for 1 hour with 3 μg of TIGIT-Ig per 100,000 cells. Detection was performed with a secondary Alexa Fluor 647 anti-human (Jackson ImmunoResearch) for 30 min on ice. For blocking experiments cells were pre-incubated with 1 μg of the indicated antibody prior to the TIGIT-Ig or human Nectin1-Ig staining. In some cases, cells were incubated with 8 ug/ml of the indicated Ab together with human TIGIT-Ig or human Nectin-1-Ig (at 20 ug/ml). Detection of ligand binding was performed with a secondary Alexa Fluor 647 anti-human Ab (Jackson ImmunoResearch).
The ability to the anti-Nectin4 to block Nectin4-Nectin1 interactions was also determined. […] Cells were Pre-incubated with 1 μg of (FIG. 6A) clone hNec4.01 or (FIG. 6B) clone hNec4.05 and then incubated with 3 μg of Nectin1-Ig (black line). Staining without blocking appears as gray line. […]

[4] = target: T1, murine Nectin4 expressed on cells; test: FACS titration on CHO cells transfected with murine Nectin-4, compared with MDA-MD-453 cells
Method: (§1) FIGS. 8A-8C Antibody clones hNec4.05 and hNec4.11 binding to cell surface Nectin-4. (A) Antibody binding to Nectin-4 expressed on the human cell line MDA-MD-453 was evaluated by FACS analysis. […] (B) Antibody binding to CHO cells transfected with Cynomolgus (Cyno)-Nectin-4 and analyzed as in A. (C) Antibody binding to CHO cells transfected with murine-Nectin-4 and analyzed as in A. ND—not detected.
(§2) Binding of murine anti-human Nectin-4 clones hNec4.05 and hNec4.11 to Nectin-4 expressed on the human cell line MDA-MD-453 was evaluated by FACS analysis. […] FIG. 8B depicts antibody binding to CHO cells transfected with Cynomolgus (Cyno)-Nectin-4 and FIG. 8C depicts antibody binding to CHO cells transfected with murine-Nectin-4. […] This may be important for pre-clinical studies of the Ab.

[5] = target: T2, human Nectin4 expressed on cells; test: FACS titration (20-0.01 nM) on the human cell line titled 'MDA-MD-543' on the sheet (MDA-MD-453 in the legend)
Method: as §1, §2

[6] = target: T2, human Nectin4 expressed on cells; test: FACS titration on MDA-MD-453 cells
Method: as §1, §2

B2: monoclonal antibody hNec4.05 (antibody, IgG1, V domains shown)
VH: QVQLQQSGPELVKPGASVRISCKASGYTFTTYYIHWVKQRPGQGLEWIGWIYPGNVNTKNNEKFKVKATLTADKSSSTAYMQLSSLTSEDSAVYFCARSNPYVMDYWGQGTSVTVSS
VL: SIVMTQTPKFLLVSAGDRVTITCKASQSVSNDVAWYQQKPGQSPKLLIYYASNRYTGVPDRFTGSGYGTDFTFTISAVQAEDLAVYFCQQDYSSPYTFGGGTKLEIK
notes: also called Nectin4.05; Clone 5
- Kd [1]: 0.272 nM
- binding result [2]: no binding (tested: 0.2 µg)
- binding result [3]: binds

B4: chimeric clone hNec4.11hIgG1 (antibody, V domains shown)
VH: B2 VH with G15E, A16T, R19K, T31S, N60Y, K63R, V66G, S77N, Y80H, S84T
VL: B2 VL with S30N, Q42L, K45E, I48M, Y55F, A77S, V85I, D91A, S93R, K107Q
notes: also called human IgG1 chimeric Ab clone hNec4.11; chimeric version of hNec4.11
- binding result [6]: binds

Further lines, results first:

- Kd [1]: 0.107 nM
- binding result [2]: no binding (tested: 0.2 µg)
- binding result [3]: binds
B1: monoclonal antibody hNec4.01 (antibody, IgG1, V domains shown)
VH: EVQLQQSGPELVKPGASVKIACRASGYTFTAYNIHWVSQRHGKSLEWIGYIYPNNGGSGYNQKFMNKATLTVDHSSNTAYMELRSLTSEDSAVYYCAIFDYDEAWFIYWGQGTLVTVSA
VL: ENVLTQSPEIMSASPGEEVTMTCSASSSVSYMHWFQQKSTISPKLWIYDTSKLASGVPGRFSGSGSGKSYSLTIRNMEAEDVATYYCFQGSGSPYTFGGGTKLEIK
notes: also called Nectin4.01; Clone 1

- fold EC50 against the EC50 for the human target [4]: ~10 fold
- binding result [5]: binds
B3: monoclonal antibody hNec4.11 (antibody, V domains shown)
VH: B2 VH with G15E, A16T, R19K, T31S, N60Y, K63R, V66G, S77N, Y80H, S84T
VL: B2 VL with S30N, Q42L, K45E, I48M, Y55F, A77S, V85I, D91A, S93R, K107Q
notes: also called Nectin4.11; clone 11

- binding result [6]: binds
B5: chimeric clone hNec4.05hIgG1 (antibody, V domains shown)
VH: B2 VH
VL: B2 VL
notes: also called human IgG1 chimeric Ab clone hNec4.05; chimeric version of hNec4.05
